Test [1] concerns the target T1, recombinant GPVI-Fc (dimeric; D1 and D2 domains of GPVI fused to the Fc domain from IgG) (human, UniProt Q9HCN6 22-203).
T1 construct: range 22-203; also called GPVI-Fcγ; dimeric GPVI; not shown: Factor Xa cleavable junction and Fc domain from IgG (Sigplg+ vector)
T1 sequence (looked up): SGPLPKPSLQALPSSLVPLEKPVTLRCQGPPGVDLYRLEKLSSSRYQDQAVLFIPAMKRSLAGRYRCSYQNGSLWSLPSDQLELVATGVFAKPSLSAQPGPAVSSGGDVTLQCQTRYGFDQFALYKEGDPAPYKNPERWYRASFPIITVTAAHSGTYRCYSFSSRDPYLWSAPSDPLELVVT
Nature of the test: displacement of GPVI-Fc (100 nM) from collagen surface; Nb2 freeze-thawed, day 0. Here is the method: (§1) Freshly made un-tagged nanobody 2 (4.2 mg/ml in PBS) was stored at 4° C. over a period of 72 hours. Samples were collected at 0, 24, 48 and 72 hours for ELISA and nanodrop analysis. 1 ml of Nb2 was also filtered using a Whatman 0.2 um syringe filter, and 50 μL was snap-frozen and thawed to determine the effects of both syringe filtering and freeze-thawing on nanobody function. The freeze-thawed sample was only tested between 0-48 hours after thawing. ELISA displacement assays were performed on each sample as described in ‘Solid-phase binding assay’. Nb2 concentrations were determined at each time point by measuring absorbance a 280 nm using a nanodrop ND-1000 spectrophotometer.
(§2) Nb2 stability at 4° C. was tested by comparing the ability for nb2 to displace GPVI-Fc binding to a collagen surface after 0-, 24-, 48- and 72-hours storage at 4° C. (FIG. 8). Nb2 was stored in PBS with no added preservatives. In addition, samples of nb2 that were freeze-thawed and an additional sample that had been filtered were also tested. […] There was an observed reduction in protein concentration of approximately 3% when filtering but it is not abnormal for small losses in protein yield when filtering.

The target of test [2] is T1, recombinant GPVI-Fc (dimeric; D1 and D2 …). Description: displacement of GPVI-Fc (100 nM) from collagen surface; Nb2 freeze-thawed, day 1. Here is the method: as §1, §2
The target is the same in test [3]. Description: displacement of GPVI-Fc (100 nM) from collagen surface; Nb2 freeze-thawed, day 2. Here is the method:
as §1, §2

Test [4] has the same target. Description: displacement of GPVI-Fc (100 nM) from collagen surface; Nb2 syringe-filtered, day 0. As for the experimental part:
as §1, §2

For test [5] the target is unchanged. Nature of the test: displacement of GPVI-Fc (100 nM) from collagen surface; Nb2 syringe-filtered, day 1. As for the experimental part:
as §1, §2

Test [6] has the same target. Nature of the test: displacement of GPVI-Fc (100 nM) from collagen surface; Nb2 syringe-filtered, day 2. As for the experimental part: as §1, §2
The target is the same in test [7]. Description: displacement of GPVI-Fc (100 nM) from collagen surface; Nb2 syringe-filtered, day 3. As for the experimental part: as §1, §2
Test [8] shares this target. Description: displacement of GPVI-Fc (100 nM) from collagen surface; Nb2 stored at 4 °C, non-filtered, day 0. Here is the method: as §1, §2
The target is the same in test [9]. Description: displacement of GPVI-Fc (100 nM) from collagen surface; Nb2 stored at 4 °C, non-filtered, day 1. As for the experimental part:
as §1, §2

The target is the same in test [10]. Nature of the test: displacement of GPVI-Fc (100 nM) from collagen surface; Nb2 stored at 4 °C, non-filtered, day 2. Here is the method: as §1, §2
Test [11] shares this target. Nature of the test: displacement of GPVI-Fc (100 nM) from collagen surface; Nb2 stored at 4 °C, non-filtered, day 3. As for the experimental part: as §1, §2
Test [12] addresses T2, GPVI on human washed platelets (human, UniProt Q9HCN6 21-339).
T2 construct: whole, on cells; also called platelet GPVI
T2 sequence (looked up): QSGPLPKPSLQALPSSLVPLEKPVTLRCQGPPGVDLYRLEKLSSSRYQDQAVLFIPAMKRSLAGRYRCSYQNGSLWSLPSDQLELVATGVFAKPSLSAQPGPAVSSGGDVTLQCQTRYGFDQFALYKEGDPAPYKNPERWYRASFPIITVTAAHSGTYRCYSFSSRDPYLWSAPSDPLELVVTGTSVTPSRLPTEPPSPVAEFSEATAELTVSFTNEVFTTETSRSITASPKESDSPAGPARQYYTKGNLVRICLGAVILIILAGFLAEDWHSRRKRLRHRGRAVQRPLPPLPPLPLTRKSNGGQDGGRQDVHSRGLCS
Nature of the test: flow cytometry on washed platelets, 100 nM Nb28-AF647, with or without 500 nM Nb2. As for the experimental part: a) Washed platelets were incubated in an aggregometer at 37° C. and 1200 rpm in the presence of Nb28 or PBS control prior to stimulation with 10 μg/ml Horm collagen and aggregation traces captured. Nb28 had no effect on aggregation. b) Thrombin inhibited whole blood was preincubated with either vehicle (PBS) or 500 nM of unlabelled Nb28 and then flowed over fibrillar collagen I utilising the Maastricht flow chamber at 1000/s. None of the five investigated parameters of thrombus formation or platelet activation were affected by Nb28. Each data point represents one donor (n=4), unpaired non-parametric t-test was utilized to test for significance.
Washed platelets were preincubated with 500 nM Nb2 or PBS vehicle control for 10 min, followed by addition of 100 nM Nb28-AF647 and immediate fixation. 50,000 events were acquired and Nb28-AF647 signal (FL4) measured with an Accuri C6 flow cytometer (BD) and data processed with the BD Accuri C6 Software.
(In general: A flow cytometer gives signals particle by particle.)

The text below walks through data of patent US20240067721A1 (UNIVERSITY OF BIRMINGHAM, published 2024).

In general, IC50 refers to the point on the concentration scale where inhibition reaches its midpoint.

B1: un-tagged Nb2 (thrombin-cleaved nanobody 2) (VHH)
VHH: QVQLQESGGGLVQPGGSLRLSCAAAGFTFDYYAIAWFRQAPGKEREGVSCISSSDGTTYYADSVKGRFTISKDNAKNTMYLQMNSLKPEDTAVYYCATSPLYSTNDRCISEDYDYWGQGTQVTVSS
notes: also called un-tagged nanobody 2
Turning to B1, the IC50 is 46.5 nM in test [1]; 29.8 nM in test [2]; 44 nM in test [3]; 45.7 nM in test [4]; 40.3 nM in test [5]; 35.2 nM in test [6]. In addition, the IC50 in [7] was 37.1 nM; in test [8] it was 37 nM; in test [9], 54.4 nM; in test [10] it was 34 nM; in test [11], 32.4 nM.

B2: Nb28 fluorescently labelled with AlexaFluor 647 (Nb28-AF647) (VHH)
VHH: QVQLQESGGGLVQAGDSLRLSCAASGTYSMGWFRQAPGKEREFVAAISWSGGRTNYADSVKGRFTISRDNAKNTVYLQMNSLKPEDTAVYYCSAAIYDNVSSRIGSYTYWGQGTQVTVSS
modifications: AlexaFluor 647 dye on free amino groups (NHS-ester labelling)
notes: also called labelled Nb28
Consider B2, for which the binding result in test [12] is recorded as “binds”.
